Measured values taken from patent US20150344570A1 (published 2015).

B1: GpH7-A5/GpH7-B3 variant T335_04F/GpL16-k0 (antibody, human IgG1, kappa)
heavy 1: not shown
heavy 2: not shown
light: DIVMTQSPLSLPVTPGEPASISCQASESLVHSNRNTYLHWYLQKPGQSPQLLIYKVSNRFSGVPDRFSGSGSGTDFTLKISRVEAEDVGVYYCSQNTHVPPTFGQGTKVEIERTVAAPSVFIFPPSDEQLKSGTASVVCLLNNFYPREAKVQWKVDNALQSGNSQESVTEQDSKDSTYSLSSTLTLSKADYEKHKVYACEVTHQGLSSPVTKSFNRGEC
notes: heterodimerized IgG1, mutation in one H chain only; also called He Ab
B2: GpH7-A5/GpH7-B3 variant A330_04F/GpL16-k0 (antibody, human IgG1, kappa)
heavy 1: not shown
heavy 2: not shown
light: B1 light
notes: as for B1
B3: GpH7-A5/GpH7-B3 variant A330_19Q/GpL16-k0 (antibody, human IgG1, kappa)
heavy 1: not shown
heavy 2: not shown
light: B1 light
notes: as for B1
B4: GpH7-A5/GpH7-B3 variant I336_08L/GpL16-k0 (antibody, human IgG1, kappa)
heavy 1: not shown
heavy 2: not shown
light: B1 light
notes: as for B1
B5: GpH7-A5/GpH7-B3 variant A330_01G/GpL16-k0 (antibody, human IgG1, kappa)
heavy 1: not shown
heavy 2: not shown
light: B1 light
notes: as for B1
B6: GpH7-A5/GpH7-B3 variant A330_10E/GpL16-k0 (antibody, human IgG1, kappa)
heavy 1: not shown
heavy 2: not shown
light: B1 light
notes: as for B1
B7: GpH7-A5/GpH7-B3 variant I336_13S/GpL16-k0 (antibody, human IgG1, kappa)
heavy 1: not shown
heavy 2: not shown
light: B1 light
notes: as for B1
B8: GpH7-A5/GpH7-B3 variant H268_18N/GpL16-k0 (antibody, human IgG1, kappa)
heavy 1: not shown
heavy 2: not shown
light: B1 light
notes: as for B1
B9: GpH7-A5/GpH7-B3 variant A330_20W/GpL16-k0 (antibody, human IgG1, kappa)
heavy 1: not shown
heavy 2: not shown
light: B1 light
notes: as for B1
B10: GpH7-A5/GpH7-B3 variant D265_10E/GpL16-k0 (antibody, human IgG1, kappa)
heavy 1: not shown
heavy 2: not shown
light: B1 light
notes: as for B1
B11: GpH7-A5/GpH7-B3 variant I336_09D/GpL16-k0 (antibody, human IgG1, kappa)
heavy 1: not shown
heavy 2: not shown
light: B1 light
notes: as for B1
B12: GpH7-A5/GpH7-B3 variant H268_01G/GpL16-k0 (antibody, human IgG1, kappa)
heavy 1: not shown
heavy 2: not shown
light: B1 light
notes: as for B1
B13: GpH7-A5/GpH7-B3 variant H268_13S/GpL16-k0 (antibody, human IgG1, kappa)
heavy 1: not shown
heavy 2: not shown
light: B1 light
notes: as for B1
B14: GpH7-A5/GpH7-B3 variant H268_09D/GpL16-k0 (antibody, human IgG1, kappa)
heavy 1: not shown
heavy 2: not shown
light: B1 light
notes: as for B1
B15: GpH7-A5/GpH7-B3 variant I336_12R/GpL16-k0 (antibody, human IgG1, kappa)
heavy 1: not shown
heavy 2: not shown
light: B1 light
notes: as for B1
B16: GpH7-A5/GpH7-B3 variant H268_10E/GpL16-k0 (antibody, human IgG1, kappa)
heavy 1: not shown
heavy 2: not shown
light: B1 light
notes: as for B1
B17: GpH7-A5/GpH7-B3 variant I336_11K/GpL16-k0 (antibody, human IgG1, kappa)
heavy 1: not shown
heavy 2: not shown
light: B1 light
notes: as for B1
B18: GpH7-A5/GpH7-B3 variant I336_14T/GpL16-k0 (antibody, human IgG1, kappa)
heavy 1: not shown
heavy 2: not shown
light: B1 light
notes: as for B1
B19: GpH7-B3 variant I336_09D/GpL16-k0 (antibody, human IgG1, kappa)
heavy: not shown
light: B1 light
notes: homodimerized IgG1, mutation in both H chains; also called Ho Ab
B20: GpH7-B3 variant T335_05P/GpL16-k0 (antibody, human IgG1, kappa)
heavy: not shown
light: B1 light
notes: as for B19
B21: GpH7-B3 variant Y300_20W/GpL16-k0 (antibody, human IgG1, kappa)
heavy: not shown
light: B1 light
notes: as for B19
B22: GpH7-B3 variant Y300_11K/GpL16-k0 (antibody, human IgG1, kappa)
heavy: not shown
light: B1 light
notes: as for B19
B23: GpH7-B3 variant I336_13S/GpL16-k0 (antibody, human IgG1, kappa)
heavy: not shown
light: B1 light
notes: as for B19
B24: GpH7-B3 variant Y300_06M/GpL16-k0 (antibody, human IgG1, kappa)
heavy: not shown
light: B1 light
notes: as for B19
B25: GpH7-B3 variant Y300_19Q/GpL16-k0 (antibody, human IgG1, kappa)
heavy: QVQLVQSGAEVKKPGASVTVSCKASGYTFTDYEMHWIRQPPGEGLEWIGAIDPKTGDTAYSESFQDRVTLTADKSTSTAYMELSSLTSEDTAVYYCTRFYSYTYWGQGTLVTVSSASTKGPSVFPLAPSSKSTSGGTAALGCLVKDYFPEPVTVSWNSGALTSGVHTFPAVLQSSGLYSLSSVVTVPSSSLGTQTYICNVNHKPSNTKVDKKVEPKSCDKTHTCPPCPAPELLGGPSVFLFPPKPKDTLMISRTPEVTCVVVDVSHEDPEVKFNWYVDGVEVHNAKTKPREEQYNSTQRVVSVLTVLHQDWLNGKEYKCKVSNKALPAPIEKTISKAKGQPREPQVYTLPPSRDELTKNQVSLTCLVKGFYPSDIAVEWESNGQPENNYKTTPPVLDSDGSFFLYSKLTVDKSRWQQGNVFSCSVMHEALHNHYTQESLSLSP
light: B1 light
notes: as for B19
B26: GpH7-B3 variant I336_14T/GpL16-k0 (antibody, human IgG1, kappa)
heavy: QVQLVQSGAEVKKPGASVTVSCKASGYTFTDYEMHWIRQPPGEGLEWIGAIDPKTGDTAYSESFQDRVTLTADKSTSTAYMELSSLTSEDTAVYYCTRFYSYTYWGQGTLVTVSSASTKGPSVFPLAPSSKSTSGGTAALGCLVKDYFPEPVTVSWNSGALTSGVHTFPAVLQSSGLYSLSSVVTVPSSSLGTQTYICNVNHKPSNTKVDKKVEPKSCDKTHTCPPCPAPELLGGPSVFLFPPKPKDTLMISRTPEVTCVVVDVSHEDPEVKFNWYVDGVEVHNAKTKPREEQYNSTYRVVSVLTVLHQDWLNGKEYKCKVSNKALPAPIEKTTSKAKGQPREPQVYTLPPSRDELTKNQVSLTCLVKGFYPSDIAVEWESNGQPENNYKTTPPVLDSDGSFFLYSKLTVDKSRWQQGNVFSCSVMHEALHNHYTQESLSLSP
light: B1 light
notes: as for B19
B27: GpH7-B3 variant S337_04F/GpL16-k0 (antibody, human IgG1, kappa)
heavy: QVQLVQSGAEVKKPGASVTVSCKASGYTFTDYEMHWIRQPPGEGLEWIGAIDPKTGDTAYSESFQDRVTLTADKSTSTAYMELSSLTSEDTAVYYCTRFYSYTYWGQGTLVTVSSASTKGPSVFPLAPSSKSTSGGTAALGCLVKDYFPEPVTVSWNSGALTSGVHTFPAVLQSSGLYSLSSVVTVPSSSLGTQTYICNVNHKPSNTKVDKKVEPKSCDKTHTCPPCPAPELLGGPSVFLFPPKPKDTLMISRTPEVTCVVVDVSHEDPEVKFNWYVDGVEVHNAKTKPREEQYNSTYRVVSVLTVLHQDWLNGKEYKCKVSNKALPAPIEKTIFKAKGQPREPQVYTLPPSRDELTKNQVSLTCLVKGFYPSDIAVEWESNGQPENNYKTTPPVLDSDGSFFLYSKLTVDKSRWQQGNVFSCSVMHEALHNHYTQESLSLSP
light: B1 light
notes: as for B19
B28: GpH7-B3 variant Y300_03V/GpL16-k0 (antibody, human IgG1, kappa)
heavy: not shown
light: B1 light
notes: as for B19
B29: GpH7-B3 variant S337_10E/GpL16-k0 (antibody, human IgG1, kappa)
heavy: not shown
light: B1 light
notes: as for B19
B30: GpH7-B3 variant I336_11K/GpL16-k0 (antibody, human IgG1, kappa)
heavy: not shown
light: B1 light
notes: as for B19
B31: GpH7-B3 variant T335_07I/GpL16-k0 (antibody, human IgG1, kappa)
heavy: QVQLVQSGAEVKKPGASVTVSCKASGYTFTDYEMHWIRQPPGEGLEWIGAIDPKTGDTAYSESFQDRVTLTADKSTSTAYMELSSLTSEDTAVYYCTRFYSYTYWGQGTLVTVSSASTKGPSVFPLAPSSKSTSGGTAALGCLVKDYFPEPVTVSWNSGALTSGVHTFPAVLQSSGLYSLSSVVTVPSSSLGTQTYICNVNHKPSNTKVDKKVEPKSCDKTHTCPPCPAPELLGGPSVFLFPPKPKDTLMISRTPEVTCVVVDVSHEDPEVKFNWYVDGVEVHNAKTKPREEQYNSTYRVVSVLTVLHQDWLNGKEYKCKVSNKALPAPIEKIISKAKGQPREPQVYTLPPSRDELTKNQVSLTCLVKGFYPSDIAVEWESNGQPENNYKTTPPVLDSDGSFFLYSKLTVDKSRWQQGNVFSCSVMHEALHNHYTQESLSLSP
light: B1 light
notes: as for B19
B32: GpH7-B3 variant T335_11K/GpL16-k0 (antibody, human IgG1, kappa)
heavy: not shown
light: B1 light
notes: as for B19
B33: GpH7-B3 variant Y296_16H/GpL16-k0 (antibody, human IgG1, kappa)
heavy: not shown
light: B1 light
notes: as for B19
B34: GpH7-B3 variant T335_15Y/GpL16-k0 (antibody, human IgG1, kappa)
heavy: not shown
light: B1 light
notes: as for B19
B35: GpH7-B3 variant S337_08L/GpL16-k0 (antibody, human IgG1, kappa)
heavy: not shown
light: B1 light
notes: as for B19
B36: GpH7-B3 variant Y300_08L/GpL16-k0 (antibody, human IgG1, kappa)
heavy: not shown
light: B1 light
notes: as for B19
B37: GpH7-B3 variant T335_19Q/GpL16-k0 (antibody, human IgG1, kappa)
heavy: not shown
light: B1 light
notes: as for B19
B38: GpH7-B3 variant Y300_02A/GpL16-k0 (antibody, human IgG1, kappa)
heavy: not shown
light: B1 light
notes: as for B19
B39: GpH7-B3 variant S337_20W/GpL16-k0 (antibody, human IgG1, kappa)
heavy: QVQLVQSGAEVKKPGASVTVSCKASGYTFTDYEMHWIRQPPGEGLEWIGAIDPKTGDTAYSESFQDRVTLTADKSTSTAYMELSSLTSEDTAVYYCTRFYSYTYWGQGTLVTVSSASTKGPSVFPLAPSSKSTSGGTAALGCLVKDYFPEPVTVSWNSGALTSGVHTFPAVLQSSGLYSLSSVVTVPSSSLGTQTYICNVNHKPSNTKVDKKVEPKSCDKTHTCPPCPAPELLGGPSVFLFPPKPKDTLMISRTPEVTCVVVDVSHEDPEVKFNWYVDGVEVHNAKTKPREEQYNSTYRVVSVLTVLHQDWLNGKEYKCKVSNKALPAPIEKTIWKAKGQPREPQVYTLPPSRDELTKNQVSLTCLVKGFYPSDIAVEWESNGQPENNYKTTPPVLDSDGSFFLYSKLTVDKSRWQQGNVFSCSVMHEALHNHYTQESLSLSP
light: B1 light
notes: as for B19
B40: GpH7-B3 variant Y296_20W/GpL16-k0 (antibody, human IgG1, kappa)
heavy: not shown
light: B1 light
notes: as for B19
B41: GpH7-B3 variant Y300_13S/GpL16-k0 (antibody, human IgG1, kappa)
heavy: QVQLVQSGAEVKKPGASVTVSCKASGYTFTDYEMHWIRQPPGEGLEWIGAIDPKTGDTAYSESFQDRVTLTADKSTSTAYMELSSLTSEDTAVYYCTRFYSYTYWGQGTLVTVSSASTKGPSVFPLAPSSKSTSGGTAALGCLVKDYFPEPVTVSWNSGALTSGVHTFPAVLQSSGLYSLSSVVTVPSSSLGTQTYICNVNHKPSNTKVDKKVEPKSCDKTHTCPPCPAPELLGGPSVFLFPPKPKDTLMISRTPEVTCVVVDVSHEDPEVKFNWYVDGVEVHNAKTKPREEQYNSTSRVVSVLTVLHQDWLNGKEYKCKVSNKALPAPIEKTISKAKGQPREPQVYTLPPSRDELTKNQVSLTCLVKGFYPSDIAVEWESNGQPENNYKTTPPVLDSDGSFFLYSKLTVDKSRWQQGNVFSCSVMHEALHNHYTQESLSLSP
light: B1 light
notes: as for B19
B42: GpH7-B3 variant S337_07I/GpL16-k0 (antibody, human IgG1, kappa)
heavy: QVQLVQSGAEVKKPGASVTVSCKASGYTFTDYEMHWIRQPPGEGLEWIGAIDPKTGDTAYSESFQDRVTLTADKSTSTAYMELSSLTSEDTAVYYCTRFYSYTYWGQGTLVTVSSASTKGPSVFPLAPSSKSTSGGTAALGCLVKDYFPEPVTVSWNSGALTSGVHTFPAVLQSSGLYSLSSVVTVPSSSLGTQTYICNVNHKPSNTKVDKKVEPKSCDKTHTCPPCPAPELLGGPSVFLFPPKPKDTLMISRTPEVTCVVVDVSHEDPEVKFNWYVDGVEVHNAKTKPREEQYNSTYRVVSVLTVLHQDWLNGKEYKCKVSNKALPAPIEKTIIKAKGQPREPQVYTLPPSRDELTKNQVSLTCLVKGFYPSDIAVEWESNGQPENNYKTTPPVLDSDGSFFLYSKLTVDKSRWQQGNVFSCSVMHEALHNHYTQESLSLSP
light: B1 light
notes: as for B19
B43: GpH7-B3 variant Y296_11K/GpL16-k0 (antibody, human IgG1, kappa)
heavy: not shown
light: B1 light
notes: as for B19
B44: GpH7-B3 variant S337_06M/GpL16-k0 (antibody, human IgG1, kappa)
heavy: not shown
light: B1 light
notes: as for B19
B45: GpH7-B3 variant T335_09D/GpL16-k0 (antibody, human IgG1, kappa)
heavy: not shown
light: B1 light
notes: as for B19
B46: GpH7-B3 variant T335_20W/GpL16-k0 (antibody, human IgG1, kappa)
heavy: not shown
light: B1 light
notes: as for B19
B47: GpH7-B3 variant T335_06M/GpL16-k0 (antibody, human IgG1, kappa)
heavy: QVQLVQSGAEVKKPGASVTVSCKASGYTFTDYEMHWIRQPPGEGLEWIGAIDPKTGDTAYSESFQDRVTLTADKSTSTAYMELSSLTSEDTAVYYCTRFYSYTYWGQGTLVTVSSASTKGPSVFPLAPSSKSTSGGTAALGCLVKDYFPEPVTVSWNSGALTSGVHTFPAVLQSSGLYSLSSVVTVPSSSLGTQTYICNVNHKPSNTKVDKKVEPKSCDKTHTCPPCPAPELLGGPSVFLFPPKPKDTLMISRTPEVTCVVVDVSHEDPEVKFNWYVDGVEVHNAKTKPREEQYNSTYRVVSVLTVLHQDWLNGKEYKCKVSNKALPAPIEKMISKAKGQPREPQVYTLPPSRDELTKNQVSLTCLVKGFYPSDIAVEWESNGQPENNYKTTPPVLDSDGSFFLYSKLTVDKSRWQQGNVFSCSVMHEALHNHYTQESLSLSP
light: B1 light
notes: as for B19
B48: GpH7-B3 variant T335_10E/GpL16-k0 (antibody, human IgG1, kappa)
heavy: not shown
light: B1 light
notes: as for B19
B49: GpH7-B3 variant S337_19Q/GpL16-k0 (antibody, human IgG1, kappa)
heavy: not shown
light: B1 light
notes: as for B19
B50: GpH7-B3 variant I336_12R/GpL16-k0 (antibody, human IgG1, kappa)
heavy: not shown
light: B1 light
notes: as for B19
B51: GpH7-B3 variant T335_16H/GpL16-k0 (antibody, human IgG1, kappa)
heavy: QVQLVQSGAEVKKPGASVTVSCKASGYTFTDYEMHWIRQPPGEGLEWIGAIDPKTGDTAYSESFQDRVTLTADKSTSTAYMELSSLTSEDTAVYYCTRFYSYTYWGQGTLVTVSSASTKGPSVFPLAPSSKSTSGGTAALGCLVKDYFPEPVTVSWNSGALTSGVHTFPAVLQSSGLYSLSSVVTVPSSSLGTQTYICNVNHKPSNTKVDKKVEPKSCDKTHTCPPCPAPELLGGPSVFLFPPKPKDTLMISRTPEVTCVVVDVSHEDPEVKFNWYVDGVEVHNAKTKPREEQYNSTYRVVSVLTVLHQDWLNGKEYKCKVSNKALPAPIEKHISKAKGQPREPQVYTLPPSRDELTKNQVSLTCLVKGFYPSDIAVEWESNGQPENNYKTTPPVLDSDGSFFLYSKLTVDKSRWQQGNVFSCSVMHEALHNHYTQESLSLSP
light: B1 light
notes: as for B19
B52: GpH7-B3 variant Y296_12R/GpL16-k0 (antibody, human IgG1, kappa)
heavy: not shown
light: B1 light
notes: as for B19
B53: GpH7-B3 variant S337_09D/GpL16-k0 (antibody, human IgG1, kappa)
heavy: not shown
light: B1 light
notes: as for B19
B54: GpH7-B3 variant T335_08L/GpL16-k0 (antibody, human IgG1, kappa)
heavy: not shown
light: B1 light
notes: as for B19
B55: GpH7-B3 variant T335_12R/GpL16-k0 (antibody, human IgG1, kappa)
heavy: not shown
light: B1 light
notes: as for B19
B56: GpH7-B3 variant Y296_06M/GpL16-k0 (antibody, human IgG1, kappa)
heavy: not shown
light: B1 light
notes: as for B19
B57: GpH7-B3 variant Y300_14T/GpL16-k0 (antibody, human IgG1, kappa)
heavy: not shown
light: B1 light
notes: as for B19
B58: GpH7-B3 variant S337_15Y/GpL16-k0 (antibody, human IgG1, kappa)
heavy: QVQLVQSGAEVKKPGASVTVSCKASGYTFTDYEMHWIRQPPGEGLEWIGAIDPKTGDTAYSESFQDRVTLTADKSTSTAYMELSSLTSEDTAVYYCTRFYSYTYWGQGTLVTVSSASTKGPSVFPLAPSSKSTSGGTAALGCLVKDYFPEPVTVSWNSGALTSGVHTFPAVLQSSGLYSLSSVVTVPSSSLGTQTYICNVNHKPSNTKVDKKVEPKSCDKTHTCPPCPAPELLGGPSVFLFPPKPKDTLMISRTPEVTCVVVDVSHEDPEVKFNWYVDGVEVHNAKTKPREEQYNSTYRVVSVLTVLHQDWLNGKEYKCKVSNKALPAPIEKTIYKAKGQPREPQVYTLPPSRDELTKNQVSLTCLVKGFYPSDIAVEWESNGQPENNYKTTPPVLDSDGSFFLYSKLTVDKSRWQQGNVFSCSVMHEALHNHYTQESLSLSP
light: B1 light
notes: as for B19
B59: GpH7-B3 variant T335_18N/GpL16-k0 (antibody, human IgG1, kappa)
heavy: not shown
light: B1 light
notes: as for B19

molecular target: T1, FcγRIa (human, UniProt P12314 16-292); test: SPR (Biacore), captured antibody, FcγRIa analyte; relative to GpH7-A5/GpH7-B3/GpL16-k0
T1 construct: extracellular domain; soluble His-tagged extracellular domain expressed in FreeStyle293 cells, used as analyte in Biacore; also called FcgRI; CD64
T1 sequence (P12314 16-292): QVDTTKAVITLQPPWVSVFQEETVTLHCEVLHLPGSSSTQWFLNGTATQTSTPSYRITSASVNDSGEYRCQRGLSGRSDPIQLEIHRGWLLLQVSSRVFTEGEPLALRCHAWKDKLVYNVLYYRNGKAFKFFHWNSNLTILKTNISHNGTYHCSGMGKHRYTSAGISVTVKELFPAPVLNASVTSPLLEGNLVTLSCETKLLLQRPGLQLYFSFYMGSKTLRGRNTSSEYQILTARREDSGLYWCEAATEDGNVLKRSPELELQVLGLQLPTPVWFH

He/Con_1a | Binder
105 relative, control = 100 | B1
106 relative, control = 100 | B2
105 relative, control = 100 | B3
107 relative, control = 100 | B4
106 relative, control = 100 | B5
107 relative, control = 100 | B6
102 relative, control = 100 | B7
108 relative, control = 100 | B8
108 relative, control = 100 | B9
101 relative, control = 100 | B10
104 relative, control = 100 | B11
107 relative, control = 100 | B12
109 relative, control = 100 | B13
110 relative, control = 100 | B14
102 relative, control = 100 | B15
111 relative, control = 100 | B16
105 relative, control = 100 | B17
104 relative, control = 100 | B18

molecular target: T1, FcγRIa; test: SPR (Biacore), captured antibody, FcγRIa analyte; relative to GpH7-B3/GpL16-k0

Ho/Con_1a | Binder
108 relative, control = 100 | B19
106 relative, control = 100 | B20
110 relative, control = 100 | B21
101 relative, control = 100 | B22
110 relative, control = 100 | B23
111 relative, control = 100 | B24
110 relative, control = 100 | B25
111 relative, control = 100 | B26
105 relative, control = 100 | B27
112 relative, control = 100 | B28
104 relative, control = 100 | B29
107 relative, control = 100 | B30
105 relative, control = 100 | B31
103 relative, control = 100 | B32
105 relative, control = 100 | B33
106 relative, control = 100 | B34
105 relative, control = 100 | B35
109 relative, control = 100 | B36
105 relative, control = 100 | B37
110 relative, control = 100 | B38
104 relative, control = 100 | B39

Ho/Con_1a | Binder
106 relative, control = 100 | B40
110 relative, control = 100 | B41
105 relative, control = 100 | B42
102 relative, control = 100 | B43
102 relative, control = 100 | B44
107 relative, control = 100 | B45
104 relative, control = 100 | B46
106 relative, control = 100 | B47
108 relative, control = 100 | B48
105 relative, control = 100 | B49
109 relative, control = 100 | B50
104 relative, control = 100 | B51
103 relative, control = 100 | B52
106 relative, control = 100 | B53
105 relative, control = 100 | B54
106 relative, control = 100 | B55
104 relative, control = 100 | B56
110 relative, control = 100 | B57
104 relative, control = 100 | B58
102 relative, control = 100 | B59
